Biological target: T1, Wild-type prothrombin (human, UniProt P00734 44-622)
T1 construct: prothrombin, human
Assay: SPR; Biacore T200; FVa amine-coupled on a CM5 chip (8000-9000 RU); prothrombin 0-10,000 nM injected for 60 s at 30 uL/min; HBS (0.02 M HEPES, 0.15 M NaCl, pH 7.4) with 5 mM CaCl2 and 0.01% Tween-80; kinetic 1:1 Langmuir model
Settings: both partners purified

B1: Factor Va (complex)
heavy: AQLRQFYVAAQGISWSYRPEPTNSSLNLSVTSFKKIVYREYEPYFKKEKPQSTISGLLGPTLYAEVGDIIKVHFKNKADKPLSIHPQGIRYSKLSEGASYLDHTFPAEKMDDAVAPGREYTYEWSISEDSGPTHDDPPCLTHIYYSHENLIEDFNSGLIGPLLICKKGTLTEGGTQKTFDKQIVLLFAVFDESKSWSQSSSLMYTVNGYVNGTMPDITVCAHDHISWHLLGMSSGPELFSIHFNGQVLEQNHHKVSAITLVSATSTTANMTVGPEGKWIISSLTPKHLQAGMQAYIDIKNCPKKTRNLKKITREQRRHMKRWEYFIAAEEVIWDYAPVIPANMDKKYRSQHLDNFSNQIGKHYKKVMYTQYEDESFTKHTVNPNMKEDGILGPIIRAQVRDTLKIVFKNMASRPYSIYPHGVTFSPYEDEVNSSFTSGRNNTMIRAVQPGETYTYKWNILEFDEPTENDAQCLTRPYYSDVDIMRDIASGLIGLLLICKSRSLDRRGIQRAADIEQQAVFAVFDENKSWYLEDNINKFCENPDEVKRDDPKFYESNIMSTINGYVPESITTLGFCFDDTVQWHFCSVGTQNEILTIHFTGHSFIYGKRHEDTLTLFPMRGESVTVTMDNVGTWMLTSMNSSPRSKKLRLKFRDVKCIPDDDEDSYEIFEPPESTVMATRKMHDRLEPEDEESDADYDYQNRLAAALGIR
light: SNNGNRRNYYIAAEEISWDYSEFVQRETDIEDSDDIPEDTTYKKVVFRKYLDSTFTKRDPRGEYEEHLGILGPIIRAEVDDVIQVRFKNLASRPYSLHAHGLSYEKSSEGKTYEDDSPEWFKEDNAVQPNSSYTYVWHATERSGPESPGSACRAWAYYSAVNPEKDIHSGLIGPLLICQKGILHKDSNMPMDMREFVLLFMTFDEKKSWYYEKKSRSSWRLTSSEMKKSHEFHAINGMIYSLPGLKMYEQEWVRLHLLNIGGSQDIHVVHFHGQTLLENGNKQHQLGVWPLLPGSFKTLEMKASKPGWWLLNTEVGENQRAGMQTPFLIMDRDCRMPMGLSTGIISDSQIKASEFLGYWEPRLARLNNGGSYNAWSVEKLAAEFASKPWIQVDMQKEVIITGIQTQGAKHYLKSCYTTEFYVAYSSNQINWQIFKGNSTRNVMYFNGNSDASTIKENQFDPPIVARYIRISPTRAYNRPTLRLELQGCEVNGCSTPLGMENGKIENKQITASSFKKSWWGDYWEPFRARLNAQGRVNAWQAKANNNKQWLEIDLLKIKKITAIITQGCKSLSSEMYVKSYTIHYSEQGVEWKPYRLKSSMVDKIFEGNTNTKGHVKNFFNPPIISRFIRVIPKTWNQSIALRLELFGCDIY
notes: heavy chain of factor Va; light chain of factor Va; Bovine FVa is named only for the preparation of the heavy chain for NMR; the source of the FVa of the other experiments is in the Supplementary Materials; also called FVa
- Kd: 1 µM

Source: publication PMC6385242, “Identification and characterization of a factor Va-binding site on human prothrombin fragment 2” (Scientific Reports, 2019)
